These results are taken from US20250297255A1 (ARSENAL BIOSCIENCES, published 2025).

Substitutions are numbered along the chain they refer to.

The chains are these.
B1: TMPRSS4 Ab25 scFv (VH-VL) (scFv)
scFv: QVQLVQSGAEVKKPGASVKVSCKASGGRFSTYALSWVRQAPGQGLEWMGWINPNSGGTNYAQKFQGRVTMTRDTSTSTVYMELSSLRSEDTAVYYCAKSLWWSPSHYYYYGMDVWGQGTTVTVSSGGGGSGGGGSGGGGSEIVMTQSPATLSVSPGERATLSCRASQSVSSNYLAWYQQKPGQAPRLLIYGISTRASGIPARFSGSGSGTEFTLTISSLQSEDFAVYYCQQRSNWPPSITFGQGTRLEIK
notes: on monoclonal phage in the screen
B2: TMPRSS4 Ab14 scFv (VH-VL) (scFv)
scFv: EVQLLESGGGLVQPGGSLRLSCAASGFTFSNHYMSWVRQAPGKGLEWVSAISGSGGSTYYADSVKGRFTISRDNSKNTLYLQMNSLRAGDTAVYYCARDRYRWGRGYFQHWGQGTLVTVSSGGGGSGGGGSGGGGSDIQMTQSPSSLSASVGDRVTITCRASQRISTYLNWYQQKPGKAPKLLIYSASTLQAGVPSRFSGSGSGTDFTLTISSLQPEDFATYYCQQAYSLPWTFGQGTKLEIK
notes: as for B1
B3: TMPRSS4 Ab27 scFv (VH-VL) (scFv)
scFv: QVQLVQSGAEVKKPGASVKVSCKASGYTFSRYYMHWVRQAPGQGLEWMGWMNPNSGDTGYAQKFQGRVTMTRDTSTSTVYMELSSLRSEDTAVYYCAKGREWLRSPFDYWGQGTLVTVSSGGGGSGGGGSGGGGSDIQMTQSPSSLSASVGDRVTITCRASQSISTWLAWYQQKPGKAPKLLIYAASSLQSGVPSRFSGSGSGTDFTLTISSLQPEDFATYYCQQLSSYPLTFGQGTKVEIK
notes: as for B1
B4: TMPRSS4 Ab13 scFv (VH-VL) (scFv)
scFv: QVQLVQSGAEVKKPGASVKVSCKASGYTFTNYYMHWVRQAPGQGLEWMGWISAYNGNTNYAQKLQGRVTMTRDTSTSTVYMELSSLRSEDTAVYYCATASGWGHSNSAGYWGQGTLVTVSSGGGGSGGGGSGGGGSEIVMTQSPATLSVSPGERATLSCRASQSVNGNYLAWYQQKPGQAPRLLIYGVSSRASGIPARFSGSGSGTEFTLTISSLQSEDFAVYYCQQYGSSPYTFGQGTKVEIK
notes: as for B1
B5: TMPRSS4 Ab22 scFv (VH-VL) (scFv)
scFv: QVQLVQSGAEVKKPGASVKVSCKASGYTFTSYYMHWVRQAPGQGLEWMGRINPHSGDADFVDKFQGRVTMTRDTSTSTVYMELSSLRSEDTAVYYCARDRRGYGGNSLDYWGQGTLVTVSSGGGGSGGGGSGGGGSDIQMTQSPSSLSASVGDRVTITCRAGQNIKRYLNWYQQKPGKAPKLLIYAASSLQSGVPSRFSGSGSGTDFTLTISSLQPEDFATYYCQQSYSSPLTFGGGTKVEIK
notes: as for B1
B6: TMPRSS4 Ab2 scFv (VH-VL) (scFv)
scFv: EVQLLESGGGLVQPGGSLRLSCAASGFTFSDYYMSWVRQAPGKGLEWVSYISGSGDAIYYADSVKGRFTISRDNSKNTLYLQMNSLRAEDTAVYYCARDRSDCGGDDRFLCDGYFDLWGRGTLVSLSGGGGSGGGGSGGGGSDIQMTQSPSSLSASVGDRVTITCRASQSTNNYVNWYQQKPGKAPKLLIYAASSLQSGVPSRFSGSGSGTDFTLTISSLQPEDFATYYCQQSYSIPLTFGPGTKVDIK
notes: as for B1
B7: TMPRSS4 Ab10 scFv (VH-VL) (scFv)
scFv: QVQLVQSGAEVKKPGASVKVSCKASGYTFTSYYMHWVRQAPGQGLEWMGIINPSGAGTTYGHNFQGRVTMTRDTSTSTVYMELSSLRSEDTAVYYCARGPRDTAMVRFDYWGQGTLVTVSSGGGGSGGGGSGGGGSEIVMTQSPATLSVSPGERATLSCRASQSVSSYLAWYQQKPGQAPRLLIYGASTRATGIPARFSGSGSGTEFTLTISSLQSEDFAVYYCQQYGSSPGTFGQGTKLEIK
notes: as for B1
B8: TMPRSS4 Ab17 scFv (VH-VL) (scFv)
scFv: QVQLVQSGAEVKKPGASVKVSCKASGYTFTSYYIHWVRQAPGQGLEWMGWMSPNSGDTGYAQKFQGRVTMTRDTSTSTVYMELSSLRSEDTAVYYCARLVRGGFDYWGQGTLVTVSSGGGGSGGGGSGGGGSDIQMTQSPSSLSASVGDRVTITCRASQGISSYLNWYQQKPGKAPKLLIYAASRLQSGVPSRFSGSGSGTDFTLTISSLQPEDFATYYCQQSYRSPPTFGQGTKLEIK
notes: as for B1
B9: TMPRSS4 Ab11 scFv (VH-VL) (scFv)
scFv: QVQLVQSGAEVKKPGASVKVSCKASGGTFSNYAISWVRQAPGQGLEWVGRINPNSGGTNYAQKFQGRVTMTRDTSTSTVYMELSSLRSEDTAVYYCARGRYSSSSWGQGTLVTVSSGGGGSGGGGSGGGGSDIQMTQSPSSLSASVGDRVTITCRASQSINNYLNWYQQKPGKAPKLLIYAASSLQSGVPSRFSGSGSGTDFTLTISSLQPEDFATYYCQQSYSTKWTFGQGTKVEIK
notes: as for B1
B10: TMPRSS4 Ab23 scFv (VH-VL) (scFv)
scFv: QVQLVQSGAEVKKPGASVKVSCKASGYTFTRNYLHWVRQAPGQGLEWMGIINPSGGSTTYAQKFQGRVTMTRDTSTSTVYMELSSLRSEDTAVYYCARGRTWFRSGMDVWGQGTTVTVSSGGGGSGGGGSGGGGSEIVMTQSPATLSVSPGERATLSCRASQSVGNYLAWYQQKPGQAPRLLIYGASTRATGIPARFSGSGSGTEFTLTISSLQSEDFAVYYCQQYHSSPPYTFGQGTKVEIK
notes: as for B1
B11: TMPRSS4 Ab20 scFv (VH-VL) (scFv)
scFv: QVQLVQSGAEVKKPGASVKVSCKASGYTFTRYYMHWVRQAPGQGLEWMGWMNPNSGNAGYAQKLQGRVTMTRDTSTSTVYMELSSLRSEDTAVYYCARGYNWFDPWGQGTLVTVSSGGGGSGGGGSGGGGSDIQMTQSPSSLSASVGDRVTITCRASQNIATYLSWYQQKPGKAPKLLIYGASALRSGVPSRFSGSGSGTDFTLTISSLQPEDFATYYCLQHNTYPLTFGGGTKVEIK
notes: as for B1
B12: TMPRSS4 Ab1 scFv (VH-VL) (scFv)
scFv: QVQLVQSGAEVKKPGSSVKVSCKASGYTFTDYYMHWVRQAPGQGLEWMGGIIPIFGTANYAQKFQGRVTITADESTSTAYMELSSLRSEDTAVYYCAKEGANGYWGQGTLVTVSSGGGGSGGGGSGGGGSDIQMTQSPSSLSASVGDRVTITCQASQDISNYLNWYQQKPGKAPKLLIYKASSLESGVPSRFSGSGSGTDFTLTISSLQPEDFATYYCQQSSRIPPTFGQGTKVEIK
notes: as for B1
B13: TMPRSS4 Ab26 scFv (VH-VL) (scFv)
scFv: EVQLLESGGGLVQPGGSLRLSCAASGFTFSSYAMHWVRQAPGKGLEWVAVIWYDGSSKYYADSVKGRFTISRDNSKNTLYLQMNSLRAEDTAVYYCARGEVRRGFQHWGQGTLVTVSSGGGGSGGGGSGGGGSDIQMTQSPSSLSASVGDRVTITCRASQNVGSWLAWYQQKPGKAPKLLIYAASSLQSGVPSRFSGSGSGTDFTLTIRSLQPEDFATYYCQQSYSTPITFGQGTRLEIK
notes: as for B1
B14: TMPRSS4 Ab16 scFv (VH-VL) (scFv)
scFv: QVQLVQSGAEVKKPGASVKVSCKASGYTFSRHYMHWVRQAPGQGLEWMGRINPNSGGTNYAQKFQGRVTMTRDTSTSTVYMELSSLRSEDTAVYYCARSIYGDYWFDPWGQGTLVTVSSGGGGSGGGGSGGGGSDIQMTQSPSSLSASVGDRVTITCRASQSINRWLAWYQQKPGKAPKLLIYGASNLQSGVPSRFSGSGSGTDFTLTISSLQPEDFATYYCQQANSFPYTFGQGTKLEIK
notes: as for B1
B15: TMPRSS4 Ab12 scFv (VH-VL) (scFv)
scFv: QVQLVQSGAEVKKPGASVKVSCKASGYTFSNYYIHWVRQAPGQGLEWMGWINPNSGDTNYAQKFQGRVTMTRDTSTSTVYMELSSLRSEDTAVYYCARGMTWRTSAATYWGQGTLVTVSSGGGGSGGGGSGGGGSDIQMTQSPSSLSASVGDRVTITCRASQGISRWLAWYQQKPGKAPKLLIYGASNLQTGVPSRFSGSGSGTDFTLTISSLQPEDFATYYCQQSYSTPPTFGPGTKVDIK
notes: as for B1
B16: TMPRSS4 Ab19 scFv (VH-VL) (scFv)
scFv: QVQLVQSGAEVKKPGASVKVSCKASGYTFNRKFMHWVRQAPGQGLEWMGWMNPNNGATNYAQKFQGRVTMTRDTSTSTVYMELSSLRSEDTAVYYCARGRGYYGSGSYYGDYWGQGTLVTVSSGGGGSGGGGSGGGGSDIQMTQSPSSLSASVGDRVTITCRASQSISRYLNWYQQKPGKAPKLLIYGASNLQSGVPSRFSGSGSGTDFTLTISSLQPEDFATYYCQQSYSTPPTFGPGTKVDIK
notes: as for B1
B17: TMPRSS4 Ab18 scFv (VH-VL) (scFv)
scFv: QVQLVQSGAEVKKPGASVKVSCKASGYTFTSSGINWVRQAPGQGLEWMGWINPNSGGAKYAQRFQGRVTMTRDTSTSTVYMELSSLRSEDTAVYYCARARGYSGSKRDFQHWGQGTLVTVSSGGGGSGGGGSGGGGSDIVMTQSPDSLAVSLGERATINCKSSQSVLYSSNNKNYLAWYQQKPGQPPKLLIYWASTRESGVPDRFSGSGSGTDFTLTISSLQAEDVAVYHCQQYYNTPFTFGPGTKVDIK
notes: as for B1
B18: TMPRSS4 Ab24 scFv (VH-VL) (scFv)
scFv: QVQLVQSGAEVKKSGASVKVSCKASGYTFTSYYMHWVRQAPGQGLEWMGVINPSGGTTSYAQKFQGRVTMTRETSTSTVYMELSSLRSEDTAVYYCARGRGWLRSALGYWGQGTLVTVSSGGGGSGGGGSGGGGSDIQMTQSPSSLSASVGDRVTITCRASQSISSWLAWYQQKPGKAPKLLIYAASTLQSGVPSRFSGSGSGTDFTLTISSLQPEDFATYYCQQSYNTPYTFGQGTKLEIK
notes: as for B1
B19: TMPRSS4 Ab15 scFv (VH-VL) (scFv)
scFv: QVQLVQSGAEVKKPGASVKVSCKASGYTFTRYYMHWVRQAPGQGLEWMGWINPNSGVTNFAQKFQGRVTMTRDTSTSTVYMELSSLRSEDTAVYYCARVRIGWLQSPPLYWGQGTLVTVSSGGGGSGGGGSGGGGSDIQMTQSPSSLSASVGDRVTITCRASQSINTWLAWYQQKPGKAPKLLIYAASSLQSGVPSRFSGSGSGTDFTLTISSLQPEDFATYYCQQAISFPLTFGGGTKVEIK
notes: as for B1
B20: TMPRSS4 Ab46 scFv (VH-VL) (scFv)
scFv: B19 scFv with T30S, Y33F, V57G, F60Y, N166S, A227S, I228Y, S229G, L232W, G236Q
notes: as for B1

T1 sequence (Q9NRS4 whole entry): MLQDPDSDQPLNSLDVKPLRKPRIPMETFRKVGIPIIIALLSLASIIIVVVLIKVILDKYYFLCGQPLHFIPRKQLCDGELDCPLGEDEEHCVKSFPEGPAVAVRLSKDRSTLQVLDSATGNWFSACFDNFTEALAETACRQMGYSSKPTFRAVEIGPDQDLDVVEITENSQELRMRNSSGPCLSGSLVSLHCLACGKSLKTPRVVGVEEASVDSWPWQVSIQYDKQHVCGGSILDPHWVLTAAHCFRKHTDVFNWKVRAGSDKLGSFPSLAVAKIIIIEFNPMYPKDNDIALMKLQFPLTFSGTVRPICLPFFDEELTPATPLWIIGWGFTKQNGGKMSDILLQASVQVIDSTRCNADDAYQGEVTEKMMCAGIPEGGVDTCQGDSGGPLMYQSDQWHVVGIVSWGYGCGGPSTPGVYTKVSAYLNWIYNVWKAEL

The assay concerns the target T1, Human TMPRSS4 (Transmembrane protease, serine 4), wild type full length (human, UniProt Q9NRS4 1-437).
T1 construct: Type II membrane protein over-expressed on HEK293T cells (also endogenous on H1975 and LUDLU-1 cells); also called TMPRSS4 WT; HEK293T-TMPRSS4
Kind of assay: flow cytometry, monoclonal phage on HEK293T-TMPRSS4 cells.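 Also: bound phage detected with a PE-labelled mouse anti-M13 monoclonal antibody, read by flow cytometry.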
As for B1, the binding result is recorded as “binds”. In the case of B2, the binding result is “binds”. With B3, the binding result is on record as “binds”. As for B4, the binding result is listed as “binds”. Take B5: the binding result is given as “binds”. The same measure for B6: “binds”; for B7: “binds”.

Turning to B8, the binding result is on record as “binds”.

For B9, the binding result is “binds”. The same measure for B10: “binds”; for B11: “binds”. The same measure for B12: “binds”. Turning to B13, the binding result is “binds”. For the molecule B14, the binding result is “binds”. The value for B15 was “binds”; that for B16 was “binds”; that for B17 was “binds”. The value for B18 was “binds”.

With B19, the binding result is recorded as “binds”. The value for B20 was “binds”.
